{
  "source": "IntAct's records for PubMed 29691401",
  "parents": {"B1": {"name": "\"Lethal(3)malignant brain tumor-like protein 3\" (Homo sapiens), Q96JM7 (parent)", "chain": "MTESASSTSGQEFDVFSVMDWKDGVGTLPGSDLKFRVNEFGALEVITDENEMENVKKATATTTWMVPTAQEAPTSPPSSRPVFPPAYWTSPPGCPTVFSEKTGMPFRLKDPVKVEGLQFCENCCQYGNVDECLSGGNYCSQNCARHIKDKDQKEERDVEEDNEEEDPKCSRKKKPKLSLKADTKEDGEERDDEMENKQDVRILRGSQRARRKRRGDSAVLKQGLPPKGKKAWCWASYLEEEKAVAVPAKLFKEHQSFPYNKNGFKVGMKLEGVDPEHQSVYCVLTVAEVCGYRIKLHFDGYSDCYDFWVNADALDIHPVGWCEKTGHKLHPPKGYKEEEFNWQTYLKTCKAQAAPKSLFENQNITVIPSGFRVGMKLEAVDKKNPSFICVATVTDMVDNRFLVHFDNWDESYDYWCEASSPHIHPVGWCKEHRRTLITPPGYPNVKHFSWDKYLEETNSLPAPARAFKVKPPHGFQKKMKLEVVDKRNPMFIRVATVADTDDHRVKVHFDGWNNCYDYWIDADSPDIHPVGWCSKTGHPLQPPLSPLELMEASEHGGCSTPGCKGIGHFKRARHLGPHSAANCPYSEINLNKDRIFPDRLSGEMPPASPSFPRNKRTDANESSSSPEIRDQHADDVKEDFEERTESEMRTSHEARGAREEPTVQQAQRRSAVFLSFKSPIPCLPLRWEQQSKLLPTVAGIPASKVSKWSTDEVSEFIQSLPGCEEHGKVFKDEQIDGEAFLLMTQTDIVKIMSIKLGPALKIFNSILMFKAAEKNSHNEL"}},
  "data": [
    {"variants_of": "B1", "details": "with dnmt1_human DNMT1, P26358", "values": [
      {"variant": "D381N", "effect of a mutation on the interaction": "disrupting interaction strength"}
    ]},
    {"variants_of": "B1", "details": "with dnmt1_human DNMT1, P26358", "remark": "another data set of the same source", "values": [
      {"variant": "D381N", "effect of a mutation on the interaction": "decreasing interaction strength"}
    ]}
  ]
}
